# Measurements as given in US9650414B1, “Dual-action EP4 agonist—bisphosphonate conjugates and uses thereof” (Simon Fraser University, priority 2014, dated 2017).
# Tests used:
# human Cathepsin K = molecular target: T1, human Cathepsin K (Homo sapiens, UniProt P43235); assay: Cathepsin K assay, hydrolysis of conjugates by human Cathepsin K; type: biochemical; conditions: conjugate 100 uM, CatK 0.2 uM, pH 5.5, 37 C
# T1 construct: purchased Sigma-Aldrich; host or cells: E. coli
# T1 sequence (P43235 115-329): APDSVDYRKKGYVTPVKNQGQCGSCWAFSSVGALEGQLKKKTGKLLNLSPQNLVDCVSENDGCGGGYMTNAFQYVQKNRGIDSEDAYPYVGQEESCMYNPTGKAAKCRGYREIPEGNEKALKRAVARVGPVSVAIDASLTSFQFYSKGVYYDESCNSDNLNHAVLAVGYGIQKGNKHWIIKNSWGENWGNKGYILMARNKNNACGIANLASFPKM
# Procedure: (§1) Cathepsin K rat (recombinant, expressed in E. coli) was obtained from Merck as a gift. […] Enzyme activity was assayed using the Cathepsin K standard substrate Z-Leu-Arg-AMC. […] The appearances of released self-immolative linker 4-aminobenyl alcohol were recorded.
# rat Cathepsin K = molecular target: T2, rat Cathepsin K (Rattus norvegicus, UniProt O35186); assay: Cathepsin K assay, hydrolysis of conjugates by rat Cathepsin K; type: biochemical; conditions: conjugate 100 uM, CatK 0.2 uM, pH 5.5, 37 C
# T2 construct: Merck (gift); host or cells: E. coli
# T2 sequence (O35186 115-329): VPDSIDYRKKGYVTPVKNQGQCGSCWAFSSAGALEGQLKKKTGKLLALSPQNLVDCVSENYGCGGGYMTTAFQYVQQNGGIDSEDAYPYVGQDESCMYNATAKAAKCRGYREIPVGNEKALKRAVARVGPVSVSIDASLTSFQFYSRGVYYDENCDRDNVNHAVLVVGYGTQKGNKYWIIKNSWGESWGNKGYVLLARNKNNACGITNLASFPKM
# Procedure: as §1
# [1] = Analysis of the blood samples, level of tritiated 17a in blood; type: in vivo; conditions: rat, tail vein bolus, [3H]-17a
# Procedure: (§2) Female Sprague Dawley rats (Charles River) were about 13 weeks old when received. They were acclimatized to the facility and operators, and were randomly divided to five groups: 6 hour, 1-, 7, 14 and -28 day. Dose: [^3H]-17a: 8.90 μCi/rat, [^14C]-17a 1.77 uCi/rat, and 17a 5.0 mg/kg. Formulation: conjugate 17a was suspended in Poloxamer 188 solution 10%, and adjusted to pH 8.0 by NaHCO3, then diluted by equal volume of PBS. The dosing was done with a fixed volume of 500 μL. The bolus injection and blood sampling were done via the tail vein. […] Long bones were harvested and counted.
# Three Female Sprague Dawley rats (Charles River) were about 23 weeks old when received. They were acclimatized to the facility and operators. Dose: [^3H]-17a: 31.0 μCi/rat. Blood samples (0.5 mL per time point per rat) were taken from the 6-hour group of rats 0.5, 1, 2, 4, 6 hour and placed in heparinized micro-centrifuge tubes. Blood samples from the (500 μL) were centrifuged at ˜5000×G until plasma had separated. 100 μL of the supernatant was analyzed in a Harvey OX-300 biological oxidizer using the four-minute program. The collected scintillation mixture was counted on a Beckman Coulter LS-6500 scintillation counter. The counting time was two minute.
# [2] = Rat organ distribution, uptake and release of conjugate 17a in rat bone; type: in vivo
# Procedure: as §2
# After 6 h, 1, 7, 14, 28 days three animals were weighed, sacrificed by CO2 and blood, fat, muscle, brain, heart, kidney, spleen, liver and bone were dissected and cleaned free of any loose tissue. The amount of radioactivity was determined by incineration in a R. J. Harvey OX300 Biological Oxidizer. The percent of the compound retained in the skeleton and the other organs at each time point was calculated by measuring activity per gram (μCi/g) in the collected samples and extrapolating to total activity retained in the skeleton and the other organs, the weight of skeleton was calculated by 8% of the body weight, the weight of the other organs was measured by balance. […] Table 3 and FIGS. 7A-E show rat organ distribution, uptake and release of a representative conjugate compound 17a.
smiles,measurement,setting,value
"N=C(N)NCCC[C@H](NC(=O)[C@@H]1CCCN1C(=O)OCc1ccccc1)C(=O)Nc1ccc(COC(=O)NCCCC(O)(P(=O)(O)O)P(=O)(O)O)cc1 [Compound 6, (4-((((4-((S)-2-((S)-1-((benzyloxy)carbonyl)pyrrolidine-2-carboxamido)-5-guanidinopentanamido)benzyl)oxy)carbonyl)amino)-1-hydroxybutane-1,1-diyl)bis(phosphonic acid)]",hydrolysis by Hum CatK,human Cathepsin K; 1 hour,90%
same,hydrolysis by Hum CatK,human Cathepsin K; 2 hour,98%
same,hydrolysis by Rat CatK,rat Cathepsin K; 1 hour,5%
same,hydrolysis by Rat CatK,rat Cathepsin K; 2 hour,10%
same,hydrolysis by Rat CatK,rat Cathepsin K; 20 hour,52%
CC(C)C[C@H](NC(=O)OCc1ccccc1)C(=O)N[C@@H](CCCNC(=N)N)C(=O)Nc1ccc(COC(=O)NCCCC(O)(P(=O)(O)O)P(=O)(O)O)cc1 [Compound 7],hydrolysis by Hum CatK,human Cathepsin K; 1 hour,66%
same,hydrolysis by Hum CatK,human Cathepsin K; 2 hour,75%
same,hydrolysis by Hum CatK,human Cathepsin K; 3 hour,79 (3 hour) %
same,hydrolysis by Rat CatK,rat Cathepsin K; 1 hour,73%
same,hydrolysis by Rat CatK,rat Cathepsin K; 2 hour,80%
same,hydrolysis by Rat CatK,rat Cathepsin K; 20 hour,95%
"N=C(N)NCCC[C@H](NC(=O)[C@@H]1CCCN1C(=O)CNC(=O)OCc1ccccc1)C(=O)Nc1ccc(COC(=O)NCCCC(O)(P(=O)(O)O)P(=O)(O)O)cc1 [Compound 8, (4-((((4-((S)-2-((S)-1-(((benzyloxy)carbonyl)glycyl)pyrrolidine-2-carboxamido)-5-guanidinopentanamido)benzyl)oxy)carbonyl)amino)-1-hydroxybutane-1,1-diyl)bis(phosphonic acid)]",hydrolysis by Hum CatK,human Cathepsin K; 1 hour,91%
same,hydrolysis by Hum CatK,human Cathepsin K; 2 hour,100%
same,hydrolysis by Rat CatK,rat Cathepsin K; 1 hour,11%
same,hydrolysis by Rat CatK,rat Cathepsin K; 2 hour,20%
same,hydrolysis by Rat CatK,rat Cathepsin K; 20 hour,80%
"CCOC(=O)CCCCCCN1C(=O)CC[C@@H]1/C=C/[C@@H](OC(=O)Cc1ccc(COC(=O)N[C@@H](CC(C)C)C(=O)N[C@@H](CCCNC(=N)N)C(=O)Nc2ccc(COC(=O)NCCCC(O)(P(=O)(O)O)P(=O)(O)O)cc2)cc1)C(F)(F)c1ccccc1 [Compound 17a, (4-((((4-((S)-2-((S)-2-((((4-(2-(((R,E)-4-((R)-1-(7-ethoxy-7-oxoheptyl)-5-oxopyrrolidin-2-yl)-1,1-difluoro-1-phenylbut-3-en-2-yl)oxy)-2-oxoethyl)benzyl)oxy)carbonyl)amino)-4-methylpentanamido)-5-guanidinopentanamido)benzyl)oxy)carbonyl)amino)-1-hydroxybutane-1,1-diyl)bis(phosphonic acid)]","clearance from circulating blood, t1/2",[1],~30 min
same,behavior or reaction of dosed animals,"[2]; 17a 5.0 mg/kg, tail vein bolus",no unusual behavior or reaction to the drug treatment
same,distribution of radio-activity,[2]; at 6 hours,most radio-activity was observed in liver and bones
same,uptake,[2]; by 3H,2%
same,uptake,[2]; by 14C,~5%
same,distribution of radio-activity,[2]; by 7 days,only bones had a significant amount of radio-activity
same,Percentage of dose in Bone,"[2]; tail vein bolus, 3H, 1-day",2.12%
same,Percentage of dose in Brain,"[2]; tail vein bolus, 3H, 1-day",0.025%
same,Percentage of dose in Heart,"[2]; tail vein bolus, 3H, 1-day",0.021%
same,Percentage of dose in Kidney,"[2]; tail vein bolus, 3H, 1-day",0.11%
same,Percentage of dose in Liver,"[2]; tail vein bolus, 3H, 1-day",2.33%
same,Percentage of dose in Spleen,"[2]; tail vein bolus, 3H, 1-day",0.22%
same,Percentage of dose in Bone,"[2]; tail vein bolus, 3H, 6-hour",2.10%
same,Percentage of dose in Brain,"[2]; tail vein bolus, 3H, 6-hour",0.022%
same,Percentage of dose in Heart,"[2]; tail vein bolus, 3H, 6-hour",0.025%
same,Percentage of dose in Kidney,"[2]; tail vein bolus, 3H, 6-hour",0.21%
same,Percentage of dose in Liver,"[2]; tail vein bolus, 3H, 6-hour",8.95%
same,Percentage of dose in Spleen,"[2]; tail vein bolus, 3H, 6-hour",0.35%
same,Percentage of dose in Bone,"[2]; tail vein bolus, 3H, 7-day",1.30%
same,Percentage of dose in Brain,"[2]; tail vein bolus, 3H, 7-day",LOD
same,Percentage of dose in Heart,"[2]; tail vein bolus, 3H, 7-day",0.014%
same,Percentage of dose in Kidney,"[2]; tail vein bolus, 3H, 7-day",0.053%
same,Percentage of dose in Liver,"[2]; tail vein bolus, 3H, 7-day",0.48%
same,Percentage of dose in Spleen,"[2]; tail vein bolus, 3H, 7-day",0.076%
same,Percentage of dose in Bone,"[2]; tail vein bolus, 3H, 14-day",0.80%
same,Percentage of dose in Brain,"[2]; tail vein bolus, 3H, 14-day",LOD
same,Percentage of dose in Heart,"[2]; tail vein bolus, 3H, 14-day",LOD
same,Percentage of dose in Kidney,"[2]; tail vein bolus, 3H, 14-day",0.026%
same,Percentage of dose in Liver,"[2]; tail vein bolus, 3H, 14-day",0.30%
same,Percentage of dose in Spleen,"[2]; tail vein bolus, 3H, 14-day",0.039%
same,Percentage of dose in Bone,"[2]; tail vein bolus, 3H, 28-day",0.74%
same,Percentage of dose in Brain,"[2]; tail vein bolus, 3H, 28-day",LOD
same,Percentage of dose in Heart,"[2]; tail vein bolus, 3H, 28-day",LOD
same,Percentage of dose in Kidney,"[2]; tail vein bolus, 3H, 28-day",0.017%
same,Percentage of dose in Liver,"[2]; tail vein bolus, 3H, 28-day",0.08%
same,Percentage of dose in Spleen,"[2]; tail vein bolus, 3H, 28-day",0.037%
same,Percentage of dose in Bone,"[2]; tail vein bolus, 14C, 1-day",4.63%
same,Percentage of dose in Brain,"[2]; tail vein bolus, 14C, 1-day",0.012%
same,Percentage of dose in Heart,"[2]; tail vein bolus, 14C, 1-day",0.009%
same,Percentage of dose in Kidney,"[2]; tail vein bolus, 14C, 1-day",0.047%
same,Percentage of dose in Liver,"[2]; tail vein bolus, 14C, 1-day",2.50%
same,Percentage of dose in Spleen,"[2]; tail vein bolus, 14C, 1-day",0.23%
same,Percentage of dose in Bone,"[2]; tail vein bolus, 14C, 6-hour",5.52%
same,Percentage of dose in Brain,"[2]; tail vein bolus, 14C, 6-hour",0.014%
same,Percentage of dose in Heart,"[2]; tail vein bolus, 14C, 6-hour",0.017%
same,Percentage of dose in Kidney,"[2]; tail vein bolus, 14C, 6-hour",0.11%
same,Percentage of dose in Liver,"[2]; tail vein bolus, 14C, 6-hour",7.03%
same,Percentage of dose in Spleen,"[2]; tail vein bolus, 14C, 6-hour",0.34%
same,Percentage of dose in Bone,"[2]; tail vein bolus, 14C, 7-day",3.51%
same,Percentage of dose in Brain,"[2]; tail vein bolus, 14C, 7-day",LOD
same,Percentage of dose in Heart,"[2]; tail vein bolus, 14C, 7-day",LOD
same,Percentage of dose in Kidney,"[2]; tail vein bolus, 14C, 7-day",0.020%
same,Percentage of dose in Liver,"[2]; tail vein bolus, 14C, 7-day",0.61%
same,Percentage of dose in Spleen,"[2]; tail vein bolus, 14C, 7-day",0.086%
same,Percentage of dose in Bone,"[2]; tail vein bolus, 14C, 14-day",2.52%
same,Percentage of dose in Brain,"[2]; tail vein bolus, 14C, 14-day",LOD
same,Percentage of dose in Heart,"[2]; tail vein bolus, 14C, 14-day",LOD
same,Percentage of dose in Kidney,"[2]; tail vein bolus, 14C, 14-day",0.013%
same,Percentage of dose in Liver,"[2]; tail vein bolus, 14C, 14-day",0.27%
same,Percentage of dose in Spleen,"[2]; tail vein bolus, 14C, 14-day",0.050%
same,Percentage of dose in Bone,"[2]; tail vein bolus, 14C, 28-day",2.44%
same,Percentage of dose in Brain,"[2]; tail vein bolus, 14C, 28-day",LOD
same,Percentage of dose in Heart,"[2]; tail vein bolus, 14C, 28-day",LOD
same,Percentage of dose in Kidney,"[2]; tail vein bolus, 14C, 28-day",0.0092%
same,Percentage of dose in Liver,"[2]; tail vein bolus, 14C, 28-day",0.10%
same,Percentage of dose in Spleen,"[2]; tail vein bolus, 14C, 28-day",0.039%
